The values that follow come from patent US20130145485.

Holding throughout (experiment): cell_activity
Data set [1] has as its system ZFN 32398 (synthetic construct). As to conditions: pair 32401/32398, DLSSA reporter in Neuro2A; pVAX control 0.16.
In data set [2] the test system is ZFN 32365 (synthetic construct). As to conditions: pair 32365/32366, K562 cells.
The subject of data set [3] is ZFN 32366 (synthetic construct). Conditions: pair 32365/32366, K562 cells.
Data set [4] relates to ZFN 32401 (synthetic construct). As to conditions: pair 32401/32398, DLSSA reporter in Neuro2A; pVAX control 0.16.
Data set [5] relates to ZFN 12897 (synthetic construct). Conditions: pair 12897/9940 with donor, CF iPS cells; 21 of 64 clones; scale: % puroR clones with targeted insertion.
Data set [6] relates to ZFN 9940 (synthetic construct). As to conditions: pair 12897/9940 with donor, CF iPS cells; 21 of 64 clones; scale: % puroR clones with targeted insertion.
Data set [7] relates to ZFN 32376 (synthetic construct). Conditions: pair 32375/32376, K562 cells.
The test system of data set [8] is ZFN 32375 (synthetic construct). As to conditions: pair 32375/32376, K562 cells.

For the sequence “ACACCAATGATATTTTCTTTAATGGTGC (double strand) [32398 target site]”, in data set [1], the activity (firefly/renilla ratio) is 1.45. Turning to “CATCATAGGAAACACCAAAGATGATATT (double strand) [32365 target site]”, the activity in data set [2] is 9 % indels.

Consider “ATATAGATACAGAAGCGTCATCAAAGCA (double strand) [32366 target site]”, for which the activity in data set [3] stood at 9 % indels.

For the sequence “CCTATGATGAATATAGATACAGAAGCGT (double strand) [32401 target site]”, the activity (firefly/renilla ratio) in data set [4] turned out to be 1.45. The sequence “ATTAGAAGTGAAGTCTGGAAATAAAACC (double strand) [12897 target site]” showed an activity in data set [5] of 33.

In data set [6], “AGTGATTATGGGAGAACTGGATGTTCACAGTCAGTCCACACGTC (double strand) [9940 target site]” displayed an activity of 33. As to “CCAACTAGAAGAGGTAAGAAACTATGTG (double strand) [32376 target site]”, in data set [7], the activity came out at 12 % indels.

In turn, “GCTTTGATGACGCTTCTGTATCTATATT (double strand) [32375 target site]” displayed an activity in data set [8] of 12 % indels.
